From publication PMC6212594, “Structural insights into the π-π-π stacking mechanism and DNA-binding activity of the YEATS domain” (Nature Communications, 2018)
Changes are numbered by the printed parent chain. Numbers in names are those of the source. Where two headings read alike, the source gives them in different places. *1 amine or outer side, *2 acyl side, *3 side chain or, on linkers, in order; H or OH if unused. Where no end group is shown, it is not given here. The star is where a group is joined. Suc = O=C(CCC(=O)[*:2])[*:1]; Crotonyl(E) = C/C=C/C(=O)*; Propionyl = CCC(=O)*; Butyryl = CCCC(=O)*

Assays:
[1] = target: T1, Taf14-YEATS G82A (Saccharomyces cerevisiae, UniProt P35189, G82A); test: biochemical; assay type: binding, yeast
Target sequence in this assay (P35189 1-137 G82A): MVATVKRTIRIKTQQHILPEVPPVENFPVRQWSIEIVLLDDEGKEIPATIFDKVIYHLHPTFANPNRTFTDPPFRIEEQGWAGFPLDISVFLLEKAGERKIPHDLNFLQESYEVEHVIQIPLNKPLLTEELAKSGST
Method: Kd value was calculated by a nonlinear least-squares analysis in Kaleidagraph using the1 Δδ=ΔδmaxL+P+Kd-L+P+Kd^2-4PL/2P where [L] is concentration of free acetyllysine, [P] is concentration of the protein, Δδ is the observed chemical shift change, and Δδmax is the normalized chemical shift change at saturation. Normalized chemical shift changes were calculated using the equation2 Δδ=ΔδH^2+ΔδN/5^2 where Δδ is the change in chemical shift in parts per million (ppm).

[2] = target: T2, AF9-YEATS Y78W (Homo sapiens, UniProt P42568, Y78W); test: Tryptophan fluorescence binding, AF9-YEATS Y78W; conditions: 20 mM Tris pH 7.5, 500 mM NaCl, 2 mM BME, 25 °C, 1–2 µM protein, peptides aa 5–13, average of three separate experiments ± SD, read-out: Binding affinity Kd
T2 sequence (P42568 1-138 Y78W): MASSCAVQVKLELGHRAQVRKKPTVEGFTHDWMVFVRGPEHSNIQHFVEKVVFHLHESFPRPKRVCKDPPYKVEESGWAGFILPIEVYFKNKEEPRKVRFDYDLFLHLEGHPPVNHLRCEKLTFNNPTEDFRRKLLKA

[3] = target: T1, Taf14-YEATS G82A; test: biochemical
[4] = target: T3, AF9-YEATS Y78W (human, UniProt P42568 1-138, Y78W); test: crystal structure; AF9-YEATS (wild type or Y78W) at 6 mg/ml with two molar equivalents of peptide; sitting drop, 4 °C; conditions: both partners purified
T3 construct: AF9, human, YEATS domain, aa 1-138 with Y78W; also called Y78W mutant; source: E. coli BL21 (DE3) RIL, purified
T3 sequence (looked up): T2 sequence (P42568 1-138 Y78W)

[5] = target: T4, AF9-YEATS domain (aa 1-138) (human, UniProt P42568 1-138); test: as above; conditions: both partners purified
T4 construct: AF9, human, YEATS domain, aa 1-138, in pET28b; His tag cleaved with thrombin; 15N-labelled for NMR; also called WT AF9-YEATS; source: E. coli BL21 (DE3) RIL, purified (nickel-NTA, ion exchange / size exclusion)
T4 sequence (looked up): T2 sequence (P42568 1-138 Y78W) with W78Y

[6] = target: T5, AF9-YEATS Y78W/A79G (human, UniProt P42568 1-138, Y78W | A79G)
T5 sequence: T2 sequence (P42568 1-138 Y78W) with A79G

[7] = target: T6, Taf14-YEATS (1-137) (yeast, UniProt P35189 1-137); test: crystal structure; Taf14-YEATS (1-137) with 5 (wild type) or 10 (G82A) molar equivalents of peptide; sitting drop, 18 °C, PEG 600, citric acid pH 6.0; conditions: both partners purified
T6 construct: Taf14, yeast, YEATS domain, aa 1-137 (construct used for crystallization); GST tag probably cleaved for crystallization (surmise); also called wild-type Taf14-YEATS; source: E. coli BL21 (DE3) RIL, purified (glutathione Sepharose 4B, size exclusion)
T6 sequence (looked up): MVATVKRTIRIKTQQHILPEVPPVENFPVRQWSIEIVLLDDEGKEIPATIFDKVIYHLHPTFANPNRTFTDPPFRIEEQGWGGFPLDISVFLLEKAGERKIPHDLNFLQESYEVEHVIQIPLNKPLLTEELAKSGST

[8] = target: Taf14-YEATS W81Y (yeast, UniProt P35189 1-137, W81Y)
[9] = target: T7, Taf14 YEATS domain (yeast, UniProt P35189 1-137)
T7 chain: T6 sequence (looked up)

[10] = target: T8, AF9-YEATS domain (aa 1-138) (human, UniProt P42568 1-138)
T8 chain: T2 sequence (P42568 1-138 Y78W) with W78Y

[11] = target: T7, Taf14 YEATS domain; test: other fluorescence titration; tryptophan fluorescence; 1-2 µM wild-type or mutated Taf14 YEATS domain in PBS pH 7.4, 25 °C, increasing concentrations of H3 peptide (aa 5-13); excitation 295 or 280 nm
[12] = target: T4, AF9-YEATS domain (aa 1-138); test: other fluorescence titration; tryptophan fluorescence; 1-2 µM wild-type or mutated AF9 YEATS domain in 20 mM Tris pH 7.5, 500 mM NaCl, 2 mM BME, 25 °C, increasing concentrations of H3 peptide (aa 5-13); conditions: both partners purified
[13] = system: H3K9acyl; conditions: cited from earlier work
Text: To assess how AF9-YEATS interacts with both H3K9acyl and DNA, we reconstituted H3K9acyl-containing nucleosome core particles (H3K9cr-NCPs and H3K9ac-NCP) and examined binding of AF9-YEATS to these NCPs and to unmodified NCP in EMSA.

[14] = target: T7, Taf14 YEATS domain; test: NMR
[15] = target: T9, Taf14-YEATS G82A (1-137) (yeast, UniProt P35189 1-137, G82A); test: crystal structure; Taf14-YEATS (1-137) with 5 (wild type) or 10 (G82A) molar equivalents of peptide; sitting drop, 18 °C, PEG 600, citric acid pH 6.0; conditions: both partners purified
T9 construct: Taf14, yeast, YEATS domain, aa 1-137 with G82A (construct used for crystallization); Also crystallized in the apo state; also called G82A mutant; source: E. coli BL21 (DE3) RIL, purified
T9 sequence (looked up): T6 sequence (looked up) with G82A

[16] = target: T10, AF9-YEATS Y78W (human, UniProt P42568 1-138, Y78W)
T10 sequence: T2 sequence (P42568 1-138 Y78W)

[17] = target: T3, AF9-YEATS Y78W; test: other fluorescence titration; tryptophan fluorescence; 1-2 µM wild-type or mutated AF9 YEATS domain in 20 mM Tris pH 7.5, 500 mM NaCl, 2 mM BME, 25 °C, increasing concentrations of H3 peptide (aa 5-13); conditions: both partners purified

Molecule: CC(=O)NCCCC[C@H](NC(=O)[C@H](CCCNC(=N)N)NC(=O)[C@H](C)NC(=O)[C@@H](NC(=O)[C@@H](N)CCC(N)=O)[C@@H](C)O)C(=O)N[C@@H](CO)C(=O)N[C@H](C(=O)NCC(=O)NCC(=O)O)[C@@H](C)O [H3K9ac]
- Kd [1]: > 10000 µM

Molecule: C/C=C/C(=O)NCCCC[C@H](NC(=O)[C@H](CCCNC(=N)N)NC(=O)[C@H](C)NC(=O)[C@@H](NC(=O)[C@@H](N)CCC(N)=O)[C@@H](C)O)C(=O)N[C@@H](CO)C(=O)N[C@H](C(=O)NCC(=O)NCC(=O)O)[C@@H](C)O [H3K9cr]
- Selectivity of G82A mutant for H3K9cr (over H3K9ac) ([1]; from NMR titration data for H3K9ac, author's response in peer review file): greater than 80 -fold
- Kd [2]: 2 µM
- Kd [3]: 124 µM

B1: histone H3K9cr (5-14) peptide (peptide, UniProt P68431 6-15, looked up)
peptide: QTARK(Crotonyl(E))STGGK
notes: histone H3, residues 5-14, K9 crotonylated
- binding result [4]: binds

B2: histone H3K9bu (1-19) peptide (peptide, UniProt P68431 2-20, looked up)
peptide: ARTKQTARKSTGGKAPRKQ
modifications: butyryllysine at K9
notes: histone H3, residues 1-19, K9 butyrylated
- binding result [5]: binds

B3: histone H3K9ac peptide (limits not stated) (peptide)
chain: QTARK(Ac)STGG
- Kd [6]: 2.6 µM

B4: histone H3K9pr (5-13) peptide (peptide, UniProt P68431 6-14, looked up)
peptide: QTARK(Propionyl)STGG
notes: histone H3, residues 5-13, K9 propionylated; also called propionylated H3K9pr peptide
- binding result [7]: binds

B5: histone H3K9cr peptide (limits not stated) (peptide)
chain: QTARK(Crotonyl(E))STGG
- Kd [8]: 9.2 µM
- Kd [6]: 2.7 µM

B6: histone H3K9bu peptide (aa 5-13) (peptide, UniProt P68431 6-14, looked up)
peptide: QTARK(Butyryl)STGG
notes: histone H3, residues 5-13, K9 butyrylated; also called H3K9bu (5-13); source: bought: Synpeptide
- Kd [9]: 28 µM
- Kd [10]: 3.9 µM
- Kd [8]: 40 µM
- binding result [7]: binds
- fold reduction of binding against H3K9cr [11]: 3 fold
- binding result [12]: binds

B7: AF9-YEATS F59A/Y78A: AF9-YEATS mutant defective in H3K9acyl binding (protein)
chain: T2 sequence (P42568 1-138 Y78W) with F59A, W78A
modifications: left off: His tag, end not stated, cleaved
- H3K9acyl binding of mutant [13]: defective in H3K9acyl binding

B8: histone H3K9su peptide (peptide)
chain: QTARK(Suc)STGG
- Kd [14]: > 700 µM

B9: histone H3K9cr peptide (aa 5-13) (peptide, UniProt P68431 6-14, looked up)
peptide: QTARK(Crotonyl(E))STGG
notes: histone H3, residues 5-13, K9 crotonylated; also called H3K9cr (5-13); source: bought: Synpeptide
- Kd [9]: 9 µM
- Kd [10]: 3.7 µM
- binding result [15]: binds
- binding result [12]: binds

B10: histone H3K9ac peptide (aa 5-13) (peptide, UniProt P68431 6-14, looked up)
peptide: QTARK(Ac)STGG
notes: histone H3, residues 5-13, K9 acetylated; source: bought: Synpeptide
- Kd [9]: 130 µM
- Kd [10]: 4.3 µM
- Kd [16]: 2.3 µM
- binding result [12]: binds
- Kd [17]: 2 µM
